Like-named read-outs stand apart in the source and are kept apart here. Square brackets hold non-standard residues; d marks the D form. Ends that are not written are not given here. * marks the point of attachment. Biotin = O=C1N[C@H]2[C@H](CS[C@H]2CCCCC(=O)*)N1; hSer = N[C@@H](CCO)C(=O)O; Nle = CCCC[C@H](N)C(=O)O; Abu = CC[C@H](N)C(=O)O; Aib = CC(C)(N)C(=O)O; Ahx = NCCCCCC(=O)O; Sar = CNCC(=O)O
Columns and labels:
CDK2/cyclin A [1] = target: T1, CDK2/cyclin A (UniProt P24941 1-298; P20248 1-432); test: cell-based or functional assay
CDK1/Cyclin B complex [2] = target: T2, CDK1/Cyclin B complex (UniProt P06493 1-297; P14635 1-433); test: cell-based or functional assay
T2 sequence (P06493 other isoform, or with tags, fused parts or gaps, chain 1 of 2): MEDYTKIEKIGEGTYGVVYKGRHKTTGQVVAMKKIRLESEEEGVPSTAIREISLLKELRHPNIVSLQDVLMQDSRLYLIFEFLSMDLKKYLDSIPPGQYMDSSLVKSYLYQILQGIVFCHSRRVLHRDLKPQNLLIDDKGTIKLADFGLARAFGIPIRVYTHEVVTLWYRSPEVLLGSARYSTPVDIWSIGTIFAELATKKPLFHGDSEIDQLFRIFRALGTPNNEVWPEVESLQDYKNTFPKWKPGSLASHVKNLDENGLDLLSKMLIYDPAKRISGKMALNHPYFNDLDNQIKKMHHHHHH
T2 sequence (P14635 other isoform, or with tags, fused parts or gaps, chain 2 of 2): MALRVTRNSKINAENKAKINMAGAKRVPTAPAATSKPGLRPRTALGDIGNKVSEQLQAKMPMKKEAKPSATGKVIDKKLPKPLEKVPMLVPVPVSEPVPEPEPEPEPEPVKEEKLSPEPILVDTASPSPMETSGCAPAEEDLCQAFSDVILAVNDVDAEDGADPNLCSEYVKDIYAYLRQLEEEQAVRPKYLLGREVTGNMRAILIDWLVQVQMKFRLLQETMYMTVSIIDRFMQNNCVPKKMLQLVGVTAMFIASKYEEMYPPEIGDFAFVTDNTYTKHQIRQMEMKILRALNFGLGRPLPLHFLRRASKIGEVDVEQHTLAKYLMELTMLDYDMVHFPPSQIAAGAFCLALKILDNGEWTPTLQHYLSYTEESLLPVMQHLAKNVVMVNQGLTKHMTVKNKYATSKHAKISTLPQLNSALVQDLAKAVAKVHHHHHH

CDK2/cyclin A [3] = target: T1, CDK2/cyclin A; test: cell-based or functional assay; remark: listed apart in the source
Cyclin A = Cyclin A (UniProt P20248 173-432, limits assumed); test: competitive cyclin A binding ELISA, competitor: immobilised p21 peptide
CDK2/cyclin A [4] = target: T1, CDK2/cyclin A; test: cell-based or functional assay; remark: listed apart in the source
[5] = target: recombinant CDK2/cyclin A (UniProt P20248 1-432; P24941 1-298); test: cell-based or functional assay
cyclin B = cyclin B (UniProt P14635 1-433); test: pull-down with immobilised peptide
Sequence of cyclin B (P14635 whole entry): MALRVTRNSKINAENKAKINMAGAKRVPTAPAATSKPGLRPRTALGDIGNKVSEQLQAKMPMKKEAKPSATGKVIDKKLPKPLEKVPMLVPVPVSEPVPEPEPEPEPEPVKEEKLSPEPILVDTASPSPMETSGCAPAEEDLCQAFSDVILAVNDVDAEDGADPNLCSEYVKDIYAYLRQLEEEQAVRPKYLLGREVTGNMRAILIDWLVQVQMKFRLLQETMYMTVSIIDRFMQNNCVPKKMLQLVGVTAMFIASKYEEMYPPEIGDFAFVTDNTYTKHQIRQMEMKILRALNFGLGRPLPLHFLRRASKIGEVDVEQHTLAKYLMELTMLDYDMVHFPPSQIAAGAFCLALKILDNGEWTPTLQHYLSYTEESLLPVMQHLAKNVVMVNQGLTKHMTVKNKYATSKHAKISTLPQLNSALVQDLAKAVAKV

CDK1/Cyclin B complex [6] = target: T2, CDK1/Cyclin B complex; test: pull-down with immobilised peptide
CDK2/Cyclin E complex [7] = target: T3, CDK2/Cyclin E complex (UniProt P24941 1-298; P24864 1-410); test: cell-based or functional assay
CDK4/Cyclin D1 complex [8] = target: T4, CDK4/Cyclin D1 complex (UniProt P11802 1-303; P24385 1-295); test: cell-based or functional assay
T4 sequence (P11802 other isoform, or with tags, fused parts or gaps, chain 1 of 2): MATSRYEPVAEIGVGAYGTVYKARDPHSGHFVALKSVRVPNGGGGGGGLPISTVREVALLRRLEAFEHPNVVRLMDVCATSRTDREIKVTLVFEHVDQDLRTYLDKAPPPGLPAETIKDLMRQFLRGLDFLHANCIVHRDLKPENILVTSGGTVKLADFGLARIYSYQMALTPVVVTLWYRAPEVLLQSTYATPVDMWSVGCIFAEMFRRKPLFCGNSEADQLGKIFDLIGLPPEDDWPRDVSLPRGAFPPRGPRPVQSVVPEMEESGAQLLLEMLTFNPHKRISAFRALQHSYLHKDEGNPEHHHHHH
T4 sequence (P24385 whole entry, chain 2 of 2): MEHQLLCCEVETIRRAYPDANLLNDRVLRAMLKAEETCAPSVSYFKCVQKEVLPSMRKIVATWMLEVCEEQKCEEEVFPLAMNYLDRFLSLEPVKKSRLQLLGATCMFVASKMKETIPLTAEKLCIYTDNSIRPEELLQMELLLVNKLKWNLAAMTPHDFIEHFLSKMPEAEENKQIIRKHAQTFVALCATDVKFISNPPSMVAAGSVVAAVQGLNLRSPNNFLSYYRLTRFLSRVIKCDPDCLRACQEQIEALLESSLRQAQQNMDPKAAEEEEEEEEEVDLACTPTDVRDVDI

Cyclin D1 [9] = target: T5, Cyclin D1 (UniProt P24385 1-295, limits assumed); test: competitive ELISA: cyclin D1 binding to immobilised biotinyl-Ahx-p21(149-159)
T5 sequence (P24385 whole entry): as the sequence (P24385 whole entry, chain 2 of 2) above
Text: The amount of bound Cyclin D1/Cyclin A was immunodetected and quantified by Turbo-ELISA reagent (PIERCE).

CDK2/Cyclin E complex [10] = target: T3, CDK2/Cyclin E complex; test: cell-based or functional assay; remark: listed apart in the source
CDK4/Cyclin D1 complex [11] = target: T4, CDK4/Cyclin D1 complex; test: cell-based or functional assay; remark: listed apart in the source
Cyclin D1 [12] = target: T5, Cyclin D1; test: pull-down, biotinylated peptide on streptavidin-agarose; SDS-PAGE, Western blot
Text: (§1) The biotinylated peptide was pre-immobilised on streptavidin-agarose beads.

CDK4 = target: T6, CDK4 (UniProt P11802 1-303); test: pull-down with biotinylated peptide on streptavidin-agarose beads; SDS-PAGE, Western blot
T6 construct: also called CDK4-6×His
T6 sequence (P11802 other isoform, or with tags, fused parts or gaps limits assumed): as the sequence (P11802 other isoform, or with tags, fused parts or gaps, chain 1 of 2) above
Text: as §1

CDK2 = CDK2 (UniProt P24941 1-298); test: as above
Text: as §1

H-HAKQRLIF-NH2 [H-His-Ala-Lys-Gln-Arg-Leu-Ile-Phe-NH2]
Relative activity, Kinase Inhibition (CDK2/cyclin A kinase assay, pRb substrate, [ATP] = 100 µM) (CDK2/cyclin A [1]): < 0.1 relative to H-His-Ala-Lys-Arg-Arg-Leu-Ile-Phe-NH2 (=1)

DFYHAKRRLIFS-NH2 [p21 (149-160)S153A DFYHAKRRLIFS-NH2]
IC50, CDK1-Cyclin B phosphorylation of GST-Rb (CDK1/Cyclin B complex [2]): > 200 µM | IC50, CDK1-Cyclin B phosphorylation of Histone 1 (CDK1/Cyclin B complex [2]): 200 µM

B1: H-His-Ala-Lys-Hse-Arg-Leu-Ile-Phe-NH2 (peptide)
peptide: H-HAK[hSer]RLIF-NH2
SMILES: CC[C@H](C)[C@H](NC(=O)[C@H](CC(C)C)NC(=O)[C@H](CCCNC(=N)N)NC(=O)[C@H](CCO)NC(=O)[C@H](CCCCN)NC(=O)[C@H](C)NC(=O)[C@@H](N)Cc1c[nH]cn1)C(=O)N[C@@H](Cc1ccccc1)C(N)=O
Relative activity, Kinase Inhibition (CDK2/cyclin A kinase assay, pRb substrate, [ATP] = 100 µM) (CDK2/cyclin A [1]): < 0.1 relative to H-His-Ala-Lys-Arg-Arg-Leu-Ile-Phe-NH2 (=1)

B2: H-His-Ala-Abu-Arg-Arg-Leu-Ile-Phe-NH2 (peptide)
peptide: H-HA[Abu]RRLIF-NH2
SMILES: CC[C@H](NC(=O)[C@H](C)NC(=O)[C@@H](N)Cc1c[nH]cn1)C(=O)N[C@@H](CCCNC(=N)N)C(=O)N[C@@H](CCCNC(=N)N)C(=O)N[C@@H](CC(C)C)C(=O)N[C@H](C(=O)N[C@@H](Cc1ccccc1)C(N)=O)[C@@H](C)CC
Relative activity, Kinase Inhibition (CDK2/cyclin A kinase assay, pRb substrate, [ATP] = 100 µM) (CDK2/cyclin A [3]): 0.8 relative to H-His-Ala-Lys-Arg-Arg-Leu-Ile-Phe-NH2 (=1)

B3: GST-pRb(772-928) (other, UniProt P06400 772-928, looked up)
chain: ASTRPPTLSPIPHIPRSPYKFPSSPLRIPGGNIYISPLKSPYKISEGLPTPTKMTPRSRILVSIGESFGTSEKFQKINQMVCNSDRVLKRSAEGSNPPKPLKKLRFDIEGSDEADGSKHLPGESKFQQKLAEMTSTRTRMQKQKMNDSMDTSNKEEK
notes: range 772-928; Limits of the pRb part are printed inconsistently; also called GST-Rb; GST-Rb(772-928); not shown: glutathione S-transferase (GST) fusion partner
IC50 (Cyclin A): 9 µM

H-HAKKRLIF-NH2 [H-His-Ala-Lys-Lys-Arg-Leu-Ile-Phe-NH2]
Relative activity, Kinase Inhibition (CDK2/cyclin A kinase assay, pRb substrate, [ATP] = 100 µM) (CDK2/cyclin A [1]): 0.8 relative to H-His-Ala-Lys-Arg-Arg-Leu-Ile-Phe-NH2 (=1)

B4: H-His-Ala-Lys-Arg-Aib-Leu-Ile-Phe-NH2 (peptide)
peptide: H-HAKR[Aib]LIF-NH2
SMILES: CC[C@H](C)[C@H](NC(=O)[C@H](CC(C)C)NC(=O)C(C)(C)NC(=O)[C@H](CCCNC(=N)N)NC(=O)[C@H](CCCCN)NC(=O)[C@H](C)NC(=O)[C@@H](N)Cc1c[nH]cn1)C(=O)N[C@@H](Cc1ccccc1)C(N)=O
Relative activity, Kinase Inhibition (CDK2/cyclin A kinase assay, pRb substrate, [ATP] = 100 µM) (CDK2/cyclin A [4]): < 0.1 relative to H-His-Ala-Lys-Arg-Arg-Leu-Ile-Phe-NH2 (=1)

H-HAKARLIF-NH2 [H-His-Ala-Lys-Ala-Arg-Leu-Ile-Phe-NH2]
Relative activity, Kinase Inhibition (CDK2/cyclin A kinase assay, pRb substrate, [ATP] = 100 µM) (CDK2/cyclin A [1]): < 0.1 relative to H-His-Ala-Lys-Arg-Arg-Leu-Ile-Phe-NH2 (=1)

B5: H-His-Ala-Nle-Arg-Arg-Leu-Ile-Phe-NH2 (peptide)
peptide: H-HA[Nle]RRLIF-NH2
SMILES: CCCC[C@H](NC(=O)[C@H](C)NC(=O)[C@@H](N)Cc1c[nH]cn1)C(=O)N[C@@H](CCCNC(=N)N)C(=O)N[C@@H](CCCNC(=N)N)C(=O)N[C@@H](CC(C)C)C(=O)N[C@H](C(=O)N[C@@H](Cc1ccccc1)C(N)=O)[C@@H](C)CC
Relative activity, Kinase Inhibition (CDK2/cyclin A kinase assay, pRb substrate, [ATP] = 100 µM) (CDK2/cyclin A [3]): 0.3 relative to H-His-Ala-Lys-Arg-Arg-Leu-Ile-Phe-NH2 (=1)

H-HALRRLIF-NH2 [H-His-Ala-Leu-Arg-Arg-Leu-Ile-Phe-NH2]
Relative activity, Kinase Inhibition (CDK2/cyclin A kinase assay, pRb substrate, [ATP] = 100 µM) (CDK2/cyclin A [3]): 0.1 relative to H-His-Ala-Lys-Arg-Arg-Leu-Ile-Phe-NH2 (=1)

Ac-RRLNF-NH2 [Ac-Arg-Arg-Leu-Asn-Phe-NH2]
Kinase IC50 (µM) CyclinA/CDK2 [5]: 37.2 µM

B6: H-His-Ala-Lys-Nle-Arg-Leu-Ile-Phe-NH2 (peptide)
peptide: H-HAK[Nle]RLIF-NH2
SMILES: CCCC[C@H](NC(=O)[C@H](CCCCN)NC(=O)[C@H](C)NC(=O)[C@@H](N)Cc1c[nH]cn1)C(=O)N[C@@H](CCCNC(=N)N)C(=O)N[C@@H](CC(C)C)C(=O)N[C@H](C(=O)N[C@@H](Cc1ccccc1)C(N)=O)[C@@H](C)CC
Relative activity, Kinase Inhibition (CDK2/cyclin A kinase assay, pRb substrate, [ATP] = 100 µM) (CDK2/cyclin A [1]): < 0.1 relative to H-His-Ala-Lys-Arg-Arg-Leu-Ile-Phe-NH2 (=1)

DFYHSKRRLIFS-NH2 [p21 (149-160) DFYHSKRRLIFS-NH2]
binding result (cyclin B): no binding | binding result (CDK1/Cyclin B complex [6]): no binding | IC50, CDK1-Cyclin B phosphorylation of GST-Rb (CDK1/Cyclin B complex [2]): 200 µM | IC50, CDK1-Cyclin B phosphorylation of Histone 1 (CDK1/Cyclin B complex [2]): > 200 µM | % Inhibition, cyclin E/CDK2 kinase (CDK2/Cyclin E complex [7]): 80% | IC50, cyclin E/CDK2 kinase, GST-pRb (CDK2/Cyclin E complex [7]): 4.5 µM | % Inhibition, cyclin D1/CDK4 kinase (CDK4/Cyclin D1 complex [8]): 70% | IC50, cyclin D1/CDK4 kinase, GST-pRb (CDK4/Cyclin D1 complex [8]): 20 µM

HSKRRLDL-NH2 [P21 C-terminus-LDL hybrid HSKRRLDL-NH2]
IC50 (Cyclin D1 [9]): > 200 µM | % Inhibition, cyclin E/CDK2 kinase (CDK2/Cyclin E complex [10]): 74% | % Inhibition, cyclin D1/CDK4 kinase (CDK4/Cyclin D1 complex [11]): 24%

B7: H-His-Ala-Lys-Arg-Sar-Leu-Ile-Phe-NH2 (peptide)
peptide: H-HAKR[Sar]LIF-NH2
SMILES: CC[C@H](C)[C@H](NC(=O)[C@H](CC(C)C)NC(=O)CN(C)C(=O)[C@H](CCCNC(=N)N)NC(=O)[C@H](CCCCN)NC(=O)[C@H](C)NC(=O)[C@@H](N)Cc1c[nH]cn1)C(=O)N[C@@H](Cc1ccccc1)C(N)=O
Relative activity, Kinase Inhibition (CDK2/cyclin A kinase assay, pRb substrate, [ATP] = 100 µM) (CDK2/cyclin A [4]): < 0.1 relative to H-His-Ala-Lys-Arg-Arg-Leu-Ile-Phe-NH2 (=1)

B8: biotinyl-Ahx-Asp-Phe-Tyr-His-Ser-Lys-Arg-Arg-Leu-Ile-Phe-NH (peptide)
peptide: Biotin-[Ahx]DFYHSKRRLIF-NH2
SMILES: CC[C@H](C)[C@H](NC(=O)[C@H](CC(C)C)NC(=O)[C@H](CCCNC(=N)N)NC(=O)[C@H](CCCNC(=N)N)NC(=O)[C@H](CCCCN)NC(=O)[C@H](CO)NC(=O)[C@H](Cc1c[nH]cn1)NC(=O)[C@H](Cc1ccc(O)cc1)NC(=O)[C@H](Cc1ccccc1)NC(=O)[C@H](CC(=O)O)NC(=O)CCCCCNC(=O)CCCC[C@@H]1SC[C@@H]2NC(=O)N[C@@H]21)C(=O)N[C@@H](Cc1ccccc1)C(N)=O
notes: immobilised on streptavidin
binding result (Cyclin D1 [12]): binds | binding result (CDK4): no binding | binding result (CDK2): no binding

PVKRRLDL-NH2 (Derived from E2F1) [E2F1 peptide PVKRRLDL-NH2]
IC50 (Cyclin D1 [9]): > 100 µM | % Inhibition, cyclin E/CDK2 kinase (CDK2/Cyclin E complex [10]): 74% | IC50, cyclin E/CDK2 kinase (CDK2/Cyclin E complex [10]): 2.1 µM | % Inhibition, cyclin D1/CDK4 kinase (CDK4/Cyclin D1 complex [11]): 58% | IC50, cyclin D1/CDK4 kinase (CDK4/Cyclin D1 complex [11]): 99 µM

DFYHSKRRLIF-NH2 [p21 (149-159) DFYHSKRRLIF-NH2]
IC50, CDK1-Cyclin B phosphorylation of GST-Rb (CDK1/Cyclin B complex [2]): > 200 µM | % Inhibition, cyclin E/CDK2 kinase (CDK2/Cyclin E complex [7]): 75% | IC50, cyclin E/CDK2 kinase, GST-pRb (CDK2/Cyclin E complex [7]): 2 µM | % Inhibition, cyclin D1/CDK4 kinase (CDK4/Cyclin D1 complex [8]): 70% | IC50, cyclin D1/CDK4 kinase, GST-pRb (CDK4/Cyclin D1 complex [8]): 13 µM

H-HAARRLIF-NH2 [H-His-Ala-Ala-Arg-Arg-Leu-Ile-Phe-NH2]
Relative activity, Kinase Inhibition (CDK2/cyclin A kinase assay, pRb substrate, [ATP] = 100 µM) (CDK2/cyclin A [3]): < 0.1 relative to H-His-Ala-Lys-Arg-Arg-Leu-Ile-Phe-NH2 (=1)

H-HARRRLIF-NH2 [H-His-Ala-Arg-Arg-Arg-Leu-Ile-Phe-NH2]
Relative activity, Kinase Inhibition (CDK2/cyclin A kinase assay, pRb substrate, [ATP] = 100 µM) (CDK2/cyclin A [3]): 5.7 relative to H-His-Ala-Lys-Arg-Arg-Leu-Ile-Phe-NH2 (=1)

Source: patent US20040176301A1 (CYCLACEL, published 2004)
